Assay results reported in PMC3711430.

How the values were obtained:
[1] = target: Xenopus FANCD2 (Xenopus laevis (endogenous in egg extracts)); assay: co-depletion by immunodepletion; DNA-free Xenopus S-phase egg extracts; FANCD2 or FANCI antibody coupled to Sepharose 4B beads, 60 min on ice, one to two rounds; depleted extracts analysed by immunoblot
[2] = target: Xenopus FANCI (Xenopus laevis (endogenous in egg extracts)); assay: as above

Substance | percent co-depleted [1] | percent co-depleted [2]
Xenopus FANCI (natural protein) | 80% | 
Xenopus FANCD2 (natural protein) |  | 80%
